According to PMC4072508, “Genome-Wide Prediction and Validation of Peptides That Bind Human Prosurvival Bcl-2 Proteins” (PLoS Computational Biology, 2014):

T1: Mcl-1, Q07820
T1 chain: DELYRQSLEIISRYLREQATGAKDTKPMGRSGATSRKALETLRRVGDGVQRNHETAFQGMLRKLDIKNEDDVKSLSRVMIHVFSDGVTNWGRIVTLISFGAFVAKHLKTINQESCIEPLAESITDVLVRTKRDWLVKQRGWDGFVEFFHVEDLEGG


Legend:
Mcl-1, Q07820 = biological target: T1, Mcl-1, Q07820; test: peptide SPOT array, c-Myc-tagged receptor at 1 uM or 100 nM, anti-c-Myc-Cy3
Bcl-xL, Q07817 = test: as above
Bcl-xL, Q07817, sequence (Q07817 1-209): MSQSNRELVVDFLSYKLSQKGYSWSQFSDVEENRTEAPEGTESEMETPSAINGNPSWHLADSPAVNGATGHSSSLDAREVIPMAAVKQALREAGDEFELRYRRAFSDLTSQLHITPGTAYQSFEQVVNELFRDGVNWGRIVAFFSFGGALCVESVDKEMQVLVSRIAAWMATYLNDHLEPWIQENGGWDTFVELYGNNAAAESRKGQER

| Binder | SPOT signal as a fraction of Bim BH3's signal on the same receptor and array (Mcl-1, Q07820) | SPOT signal as a fraction of Bim BH3's signal on the same receptor and array (Bcl-xL, Q07817) |
| --- | --- | --- |
| NKRHRPIGIGVQGLLDAFILMRYPFE | 0.05 | 0.04 |
| SKFVILSAHKDVFIGDTLTRQVTAQD [NEDD9] | 0.02 | 0.02 |
| RIEMWISILELNELLEYAAVELHQAK | 0.03 | 0.02 |
| CALIAGATLHVAWLLDSQVILVQQGQ [PPM1F] | 0.01 | 0.02 |
| RLAHEHHCLRIKILLDCYYCVSGLPE [ADCY8] | 0.03 | 0.02 |
| IGFFIAFGIAMGKMLDQAKLMVDFFN | 0.03 | 0.03 |
| RDPQGWVAGNDSARGDGAAGFTLPGF [MST1R] | 0.02 | 0.01 |
| SKFVILSAHKLVFILDTLSRQAKAAD [BCAR1] | 0.02 | 0.07 |
| SQGDKRVAFFMRKGADCLSKWVGESE | 0.06 | 0.13 |
| SALETQVAAAVQALADDYLAQLSLEP [TRO] | 0.01 | 0.01 |
| ERAISCMGQIICNLLDNLGSDLPNTL [CAND1] | 0.01 | 0.02 |
| DSLAKFAGRKDKDCGEDLLVEISEVL [PCM1] | 0.01 | 0.01 |
| RCELQICGLAMADAGEYLCVCGQERT [OBSCN] | 0.01 | 0.01 |
| QLSKPGAALYDQSIGEGFKEAVQYVL [SOS1] | 0.02 | 0.02 |
| SPYVFNGGTIDAIAGEDFAIVASDTR [PSMB1] | 0.01 | 0.01 |
| PSLSKELTSSLAGVGDVSFDSDSQFP [CRTC1] | 0.01 | 0.01 |
| DLSAVTLSRELQAMLEQLAENYHNTW [RYR1] | 0.02 | 0.02 |
| SHALICISHWILGIGDRHLNNFMVAM [PRKDC] | 0.02 | 0.02 |
| AFTEREASEIMKSIGEAIQYLHSINI [MAPKAPK2] | 0.02 | 0.02 |
| LRVSTKIGSCMKSVGEVMGIGRSFEE [CAD] | 0.04 | 0.05 |
| LSPGRSVTAGIIIVLDEILKGHTQDT [FLAD1] | 0.01 | 0.01 |

Next, values leading:

| SPOT signal as a fraction of Bim BH3's signal on the same receptor and array (Mcl-1, Q07820) | SPOT signal as a fraction of Bim BH3's signal on the same receptor and array (Bcl-xL, Q07817) | Binder |
| --- | --- | --- |
| 0.02 | 0.02 | FRLAQMCGLHDVVHADELEELINYYQ [CLTC] |
| 0.01 | 0.02 | TPSRSALSSELSLVGDTTGDTLEKFV [CREBBP] |
| 0.02 | 0.02 | KKCQDMIMTELTNALDDVVVFYNDKA [ITPR3] |
| 0.08 | 0.13 | QQMHHNAATAMAQRLDMLRGLSPRES [NCOR2] |
| 0.03 | 0.05 | AICIEEIGVWDKMYSDAFLNDSYLKY |
| 0.19 | 0.29 | NKSLTTLGLVDSSLADQAAGKGKSKF |
| 0.03 | 0.03 | KNIAGALAFWMANASELLNFIKQDRD [MLLT4] |
| 0.02 | 0.02 | VLSRIEAGRSDKSVADEFGISKSTFY [TIGD7_3eA] |
| 0.94 | 0.81 | GLTWDPVGKYIASQADDRSLKVWRTL [HIRA] |
| 0.18 | 0.26 | NKSLTTLGLVISSLLDQAAGKGKSKF |
| 0.01 | 0.02 | IGFFIAFGIADGKMGDQAKLMVDFFN |
| 0.01 | 0.01 | VDFYQPTCIVLQCGLDSLGCDRLGCF [HDAC3] |
| 0.12 | 0.18 | CILNSFYGYVMRKGARWYSMEMAGIV [POLE] |
| 0.12 | 0.25 | GSGLHGWAFTLKQFLEMYVAKFAAKG [EEF2] |
| 0.03 | 0.02 | AICIEEIGVWMKMYLDAFLNDSYLKY |
| 0.01 | 0.02 | IQQDLGCGASLGVISDNLLVTGGQGC [SCAP] |
| 0.01 | 0.01 | DVGTGAGLLEIKKIGDEYFTFITDCK [CCT3] |
| 0.02 | 0.02 | SQGDKRVAFFDRKGADCLSKWVGESE |
| 0.02 | 0.02 | NKRHRPIGIGDQGLADAFILMRYPFE |
| 0.04 | 0.02 | CDLLGAKGKDDLYIGDHIFGDILKSK [NT5C2] |
